Measurements reported in patent US20160289298A1.

Key:
TGFβ1 = TGFβ1 (UniProt P01137); assay: SPR (Biacore), receptor-Fc captured by anti-Fc antibody, ligand injected
TGFβ2 = TGFβ2 (UniProt P61812); assay: as above
TGFβ2, sequence (P61812 303-414 limits assumed): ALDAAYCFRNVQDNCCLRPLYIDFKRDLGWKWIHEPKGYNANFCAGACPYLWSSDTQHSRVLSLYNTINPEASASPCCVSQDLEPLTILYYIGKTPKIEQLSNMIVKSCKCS

TGFβ1, sequence (P01137 279-390 limits assumed): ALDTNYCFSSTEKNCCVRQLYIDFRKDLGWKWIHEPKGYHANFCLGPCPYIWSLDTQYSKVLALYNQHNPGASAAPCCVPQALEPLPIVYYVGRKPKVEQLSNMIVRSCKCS

Kd (TGFβ1): 0.025 nM | Kd (TGFβ2): > 44 nM
Substance: TGFβRII-Fc homodimeric complex (from UniProt P37173 23-159) (Fc fusion)
